The source of these data is paper PMC2946066 (Toxicon : official journal of the International Society on …, 2010).

This assay concerns the target CFP/B-Lc (BoNT/B protease fused to CFP) (Clostridium botulinum, BoNT type B; …, UniProt P10844). Put plainly: pull-down.

B1: YFP/B10 (VHH BLc-B10 fused to an amino terminal streptavidin binding peptide and YFP) (VHH)
VHH: QLQLVESGGGMVQPGGSLRLSCAASGFTFSTYDMSWVRQAPGKGPEWVSIINAGGGSTYYAASVKGRFAISRDNAKNTLYLQMNNLKPEDTALYYCARVASYYCRGYVCSPPEFDYWGQGTQVTVSS
Regarding B1, the binding result is “binds”.
